Laboratory results taken from FireProtDB (doi:10.1021/bi00025a018).

Conditions: Escherichia coli (strain K12), Thermal, CD, NaCl 0.1 M, reversible: yes, whole UniProt chain shown

B1: Ribonuclease HI wild type, P0A7Y4 (protein)
chain: MLKQVEIFTDGSCLGNPGPGGYGAILRYRGREKTFSAGYTRTTNNRMELMAAIVALEALKEHCEVILSTDSQYVRQGITQWIHNWKKRGWKTADKKPVKNVDLWQRLDAALGQHQIKWEWVKGHAGHPENERCDELARAAAMNPTLEDTGYQVEV
Tm (pH 3, glycine-HCl 10 mM): 50.9 °C | unfolding enthalpy (van 't Hoff) (pH 3, glycine-HCl 10 mM): 106 kcal/mol | Tm (pH 5.5, Sodium acetate 10 mM): 52.5 °C | unfolding enthalpy (van 't Hoff) (pH 5.5, Sodium acetate 10 mM): 81.8 kcal/mol
